One may read the EC50 as the concentration giving half of the maximal effect.

Among the data in publication PMC10876215, “Nucleosome conformation dictates the histone code” (eLife, 2024) are fold weaker than for the H3K4me3 peptide and EC50 values, retold here.

Assay [1] addresses H3K4me3K9acK14acK18ac histone peptide (dCypher, biotinylated). In words: AlphaScreen or HTRF; dCypher on the Alpha platform; biotinylated histone peptide (100 nM final) on streptavidin donor beads, 6His-tagged Query titrated and held on Ni-NTA acceptor beads; 50 mM Tris pH 7.5, 50 mM NaCl, 0.01% Tween-20, 0.01% BSA, 0.0004% Poly-L Lysine, 1 mM TCEP; room temperature; relative EC50 (EC50^rel). A general note: Bead proximity is the source of the signal in Alpha formats.

The target in assay [2] is H4K5acK8acK12acK16ac histone peptide (dCypher, biotinylated). Put plainly: AlphaScreen or HTRF; dCypher on the Alpha platform; biotinylated histone peptide (100 nM final) on streptavidin donor beads, GST-tagged Query titrated and held on glutathione acceptor beads; 50 mM Tris pH 7.5, 50 mM NaCl, 0.01% Tween-20, 0.01% BSA, 0.0004% Poly-L Lysine, 1 mM TCEP; room temperature; relative EC50 (EC50^rel), not an equilibrium Kd.

In assay [1], BPTF 6His-PHD (domain or fragment) gave a fold weaker than for the H3K4me3 peptide of 2 fold. With GST-BRD4-BD1 (domain or fragment), the EC50 in assay [2] was found to be 0.7 nM. In other words, the sub-nanomolar range.
